Data: US20150274820A1 (ESBATECH AN ALCON BIOMEDICAL RESEARCH UNIT, published 2015)
Residue numbers refer to the chain shown, from its start. Values belong to the binder of their own block, whether it stands above or below them.

What was measured:
[1] = molecular target: T1, recombinant human VEGF165 (human, UniProt P15692 27-191); test: Biacore SPR, VEGF immobilized, pH 7.4
T1 construct: mature; Isoform VEGF165 of the entry; also called hVEGF165; hVEGF
Procedure: (§1) In this example, the Biacore-binding ability of scFvs was tested and the binding affinity was measured using the exemplary surface plasmon resonance method with BIAcore™-T100. The VEGF proteins, tested for binding by these scFv candidates, in this example and later examples include purified Escherichia coli-expressed recombinant human VEGF₁₆₅ (PeproTech EC Ltd.), recombinant human VEGF₁₂₁ (PeproTech EC Ltd.), recombinant human VEGF₁₁₀ (ESBATech AG), recombinant murine VEGF₁₆₄ (PeproTech EC Ltd.), recombinant rat VEGF₁₆₄ (Biovision), recombinant rabbit VEGF₁₁₀ (ESBATech AG), and recombinant human PLGF (PeproTech EC Ltd.). For the surface plasmon resonance experiment, carboxymethylated dextran biosensor chips (CM4, GE Healthcare) were activated with N-ethyl-N′-(3-dimethylaminopropyl) carbodiimide hydrochloride and N-hydroxysuccinimide according to the supplier's instructions. Each of the 6 different VEGF forms, as exemplified above, was coupled to 1 of the 4 different flow cells on a CM4 sensor chip using a standard amine-coupling procedure. […] The 4th flow cell of each chip was treated similarly except no proteins were immobilized prior to blocking, and the flow cell was used as in-line reference. […] Dissociation of the anti-VEGF scFv from the VEGF on the CM4 chip was allowed to proceed for 10 min at 25° C. Sensorgrams were generated for each anti-VEGF scFv sample after in-line reference cell correction followed by buffer sample subtraction. The apparent dissociation rate constant (kd), the apparent association rate constant (kₐ) and the apparent dissociation equilibrium constant (KD) were calculated using one-to-one Langmuir binding model with BIAcore T100 evaluation Software version 1.1.
Target sequence in this assay (P15692 other isoform, or with tags, fused parts or gaps): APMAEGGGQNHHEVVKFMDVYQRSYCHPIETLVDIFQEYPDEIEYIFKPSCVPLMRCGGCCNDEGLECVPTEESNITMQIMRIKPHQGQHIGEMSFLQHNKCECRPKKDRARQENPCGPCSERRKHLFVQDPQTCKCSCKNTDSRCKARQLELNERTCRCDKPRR

[2] = molecular target: T1, recombinant human VEGF165; test: Biacore SPR, VEGF immobilized, pH 5
Procedure: as §1, with “1.1. […]” for “1.1.”
Target sequence in this assay (P15692 other isoform, or with tags, fused parts or gaps): as above

[3] = molecular target: T1, recombinant human VEGF165; test: cell-based or functional assay
Target sequence in this assay (P15692 other isoform, or with tags, fused parts or gaps): as above

[4] = molecular target: T1, recombinant human VEGF165; test: VEGFR1/Fc competition ELISA on coated hVEGF165; ratio to Lucentis
Procedure: After 30-60 min of incubation at room temperature, the mixtures were transferred to the human VEGF₁₆₅ immobilized plate and incubated for 90 min. […] Optical density at 450 nm (OD 450 nm) was measured using a Sunrise microplate reader (Tecan). Data were analyzed as above, and EC₅₀ values were calculated from the dose-response curves of the scFvs.
Target sequence in this assay (P15692 other isoform, or with tags, fused parts or gaps): as above

[5] = molecular target: recombinant rat VEGF164 (rat) (UniProt P16612); test: Biacore SPR, VEGF immobilized, pH 5
[6] = molecular target: recombinant murine VEGF164 (mouse) (UniProt Q00731); test: Biacore SPR, VEGF immobilized, pH 5
[7] = molecular target: T1, recombinant human VEGF165; test: Biacore SPR, VEGF immobilized, pH 5; remark: listed apart in the source
Procedure: as §1
Target sequence in this assay (P15692 other isoform, or with tags, fused parts or gaps): as above

[8] = molecular target: T1, recombinant human VEGF165; test: cell-based or functional assay; remark: listed apart in the source
recombinant human PLGF = molecular target: T2, recombinant human PLGF (human, UniProt P49763-2 19-149, limits assumed); test: Biacore SPR, PlGF immobilized, pH 5
T2 construct: Negative control; also called PIGF
T2 sequence (looked up): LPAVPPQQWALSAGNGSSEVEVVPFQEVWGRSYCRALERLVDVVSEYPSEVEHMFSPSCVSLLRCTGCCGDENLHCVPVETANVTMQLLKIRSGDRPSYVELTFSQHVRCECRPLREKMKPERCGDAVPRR
Procedure: as §1

[9] = molecular target: T3, recombinant human VEGF121 (human, UniProt P15692 27-147); test: Biacore SPR, VEGF immobilized, pH 5
T3 construct: mature; Isoform VEGF121 of the entry; also called hVEGF121
T3 sequence (looked up): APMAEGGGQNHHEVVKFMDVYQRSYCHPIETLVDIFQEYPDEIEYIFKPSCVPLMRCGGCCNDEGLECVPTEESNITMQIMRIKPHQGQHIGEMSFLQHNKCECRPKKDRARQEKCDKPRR
Procedure: as §1

[10] = molecular target: T4, recombinant human VEGF110 (human, UniProt P15692-4 27-136, limits assumed); test: Biacore SPR, VEGF immobilized, pH 5
T4 construct: Made in house; also called hVEGF110
T4 sequence (looked up): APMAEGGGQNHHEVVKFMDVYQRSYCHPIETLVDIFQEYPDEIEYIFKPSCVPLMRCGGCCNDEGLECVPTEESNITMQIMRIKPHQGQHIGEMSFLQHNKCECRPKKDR
Procedure: as §1

[11] = molecular target: T1, recombinant human VEGF165; test: Biacore SPR, VEGF immobilized, pH 5; remark: listed apart in the source
Procedure: as §1
Target sequence in this assay (P15692 other isoform, or with tags, fused parts or gaps): as the sequence (P15692 other isoform, or with tags, fused parts or gaps) above

[12] = molecular target: T1, recombinant human VEGF165; test: cell-based or functional assay; remark: listed apart in the source

- koff [1]: 0.000885 s⁻¹
- kon [1]: 675000 M⁻¹ s⁻¹
- koff [2]: 0.00128 s⁻¹
- kon [2]: 505000 M⁻¹ s⁻¹
- Rel. activity in HUVEC assay (EC50Luc[nM]/EC50test[nM]) [3]: 0.0011
- Rel. activity hVEGR1 comp. ELISA (EC50Luc[nM]/EC50test[nM]) [4]: 0.7
- koff [5]: 0.00112 s⁻¹
- kon [5]: 550000 M⁻¹ s⁻¹
- koff [6]: 0.00103 s⁻¹
- kon [6]: 625000 M⁻¹ s⁻¹
- koff [7]: 0.00128 s⁻¹
- kon [7]: 505000 M⁻¹ s⁻¹
- Rel. activity in HUVEC assay (EC50Luc[nM]/EC50test[nM]) hVEGF [8]: 0.0011
- binding result (recombinant human PLGF): no binding
- koff [9]: 0.000963 s⁻¹
- kon [9]: 778000 M⁻¹ s⁻¹
- koff [10]: 0.000898 s⁻¹
- kon [10]: 619000 M⁻¹ s⁻¹
- koff [11]: 0.00128 s⁻¹
- kon [11]: 505000 M⁻¹ s⁻¹
B1: 511-min (scFv)
scFv: EIVMTQSPSTLSASVGDRVIITCQASQSINIWCSWYQQKPGKAPKLLIYRASTLASGVPSRFSGSGSGAEFTLTISSLQPDDFATYYCQANYAYSAGYGAAFGQGTKLTVLGGGGGSGGGGSGGGGSGGGGSEVQLVESGGGLVQPGGSLRLSCAASGFSLNTYYMNWVRQAPGKGLEWVSIIAPDDTTYYASWAKSRFTISRDNSKNTLYLQMNSLRAEDTAVYYCAKSGDTTAWGADIWGQGTLVTVSS
notes: VL and VH tied by name; also called Protein Nr

- koff [1]: 6.85e-05 s⁻¹
- kon [1]: 800000 M⁻¹ s⁻¹
- koff [2]: 4.4e-05 s⁻¹
- kon [2]: 659000 M⁻¹ s⁻¹
- Rel. activity in HUVEC assay (EC50Luc[nM]/EC50test[nM]) [3]: 0.0179
- Rel. activity hVEGR1 comp. ELISA (EC50Luc[nM]/EC50test[nM]) [4]: 8
- koff [5]: 6.63e-05 s⁻¹
- kon [5]: 626000 M⁻¹ s⁻¹
- koff [6]: 4.61e-05 s⁻¹
- kon [6]: 753000 M⁻¹ s⁻¹
- koff [7]: 4.4e-05 s⁻¹
- kon [7]: 659000 M⁻¹ s⁻¹
- Rel. activity in HUVEC assay (EC50Luc[nM]/EC50test[nM]) hVEGF [8]: 0.0179
- binding result (recombinant human PLGF): no binding
- koff [9]: 9.97e-05 s⁻¹
- kon [9]: 467000 M⁻¹ s⁻¹
- koff [10]: 7.96e-05 s⁻¹
- kon [10]: 405000 M⁻¹ s⁻¹
- koff [11]: 4.4e-05 s⁻¹
- kon [11]: 659000 M⁻¹ s⁻¹
B2: 511-max (scFv)
scFv: B1 scFv with C33L, A69T, A155T, A156V, S181G, F199S, N205T, L210V, K229R
notes: also called ESBA802

- koff [1]: 0.00262 s⁻¹
- kon [1]: 1.06e+06 M⁻¹ s⁻¹
- Rel. activity in HUVEC assay (EC50Luc[nM]/EC50test[nM]) [3]: 0.0014
- EC50 in HUVEC assay (FIG. 8c) [12]: 63.5 nM
- koff [7]: 0.0173 s⁻¹
- kon [7]: 1.88e+06 M⁻¹ s⁻¹
B3: 534-max (scFv)
scFv: EIVMTQSPSTLSASVGDRVIITCQASQSINIWLSWYQQKPGKAPKLLIYKESTLASGVPSRFSGSGSGTEFTLTISSLQPDDFATYYCQNNYDSGNNGFPFGQGTKLTVLGGGGGSGGGGSGGGGSGGGGSEVQLVESGGGLVQPGGSLRLSCTASGFSLSYYYMSWVRQAPGKGLEWVGIIGPGDYTDYASWAKGRFTISKDTSKNTVYLQMNSLRAEDTAVYYCARGDDNSGWGEDIWGQGTLVTVSS
notes: VL and VH tied by name; also called EP534max; Protein Nr; 793

- koff [1]: 0.000202 s⁻¹
- kon [1]: 1.11e+06 M⁻¹ s⁻¹
- koff [2]: 0.0103 s⁻¹
- kon [2]: 1.14e+06 M⁻¹ s⁻¹
- Rel. activity in HUVEC assay (EC50Luc[nM]/EC50test[nM]) [3]: 0.1
- Rel. activity hVEGR1 comp. ELISA (EC50Luc[nM]/EC50test[nM]) [4]: 4.8
- koff [5]: 0.0182 s⁻¹
- kon [5]: 1.7e+06 M⁻¹ s⁻¹
- koff [6]: 0.0151 s⁻¹
- kon [6]: 1.4e+06 M⁻¹ s⁻¹
- EC50 in HUVEC assay (FIG. 8d) [12]: 1.53 nM
- koff [7]: 0.0103 s⁻¹
- kon [7]: 1.14e+06 M⁻¹ s⁻¹
- Rel. activity in HUVEC assay (EC50Luc[nM]/EC50test[nM]) hVEGF [8]: 0.1
- binding result (recombinant human PLGF): no binding
- koff [9]: 0.0088 s⁻¹
- kon [9]: 961000 M⁻¹ s⁻¹
- koff [10]: 0.0104 s⁻¹
- kon [10]: 915000 M⁻¹ s⁻¹
- koff [11]: 0.0103 s⁻¹
- kon [11]: 1.14e+06 M⁻¹ s⁻¹
B4: 578-min (scFv)
scFv: EIVMTQSPSTLSASVGDRVIITCQASEIIHSWLAWYQQKPGKAPKLLIYLASTLASGVPSRFSGSGSGAEFTLTISSLQPDDFATYYCQNVYLASTNGANFGQGTKLTVLGGGGGSGGGGSGGGGSGGGGSEVQLVESGGGLVQPGGSLRLSCAASGFSLTDYYYMTWVRQAPGKGLEWVSFIDPDDDPYYATWAKGRFTISRDNSKNTLYLQMNSLRAEDTAVYYCAKGDHNSGWGLDIWGQGTLVTVSS
notes: also called EP578 min; Protein Nr; 820

- koff [1]: 0.000537 s⁻¹
- kon [1]: 1.42e+06 M⁻¹ s⁻¹
- Rel. activity in HUVEC assay (EC50Luc[nM]/EC50test[nM]) [3]: 0.003
- Rel. activity hVEGR1 comp. ELISA (EC50Luc[nM]/EC50test[nM]) [4]: 13
- koff [5]: 0.00645 s⁻¹
- kon [5]: 3.9e+06 M⁻¹ s⁻¹
- koff [6]: 0.0059 s⁻¹
- kon [6]: 4.09e+06 M⁻¹ s⁻¹
- koff [7]: 0.00272 s⁻¹
- kon [7]: 2.26e+06 M⁻¹ s⁻¹
- binding result (recombinant human PLGF): no binding
- koff [9]: 0.000249 s⁻¹
- kon [9]: 742000 M⁻¹ s⁻¹
- koff [10]: 0.000235 s⁻¹
- kon [10]: 648000 M⁻¹ s⁻¹
- koff [11]: 0.00272 s⁻¹
- kon [11]: 2.26e+06 M⁻¹ s⁻¹
B5: 509-max (scFv)
scFv: EIVMTQSPSTLSASVGDRVIITCQASQNIRIWLSWYQQKPGKAPKLLIYKASTLESGVPSRFSGSGSGTEFTLTISSLQPDDFATYYCQNNAHYSTNGGTFGQGTKLTVLGGGGGSGGGGSGGGGSGGGGSEVQLVESGGGLVQPGGSLRLSCTASGFSLSSYYMCWVRQAPGKGLEWVGCLDYVGDTDYASWAKGRFTISKDASKNTVYLQMNSLRAEDTAVYYCARTDDSRGWGLNIWGQGTLVTVSS
notes: VL and VH tied by name; also called Protein Nr; 855

- koff [1]: 0.0198 s⁻¹
- kon [1]: 7.59e+06 M⁻¹ s⁻¹
- Rel. activity in HUVEC assay (EC50Luc[nM]/EC50test[nM]) [3]: 0.0009
- Rel. activity hVEGR1 comp. ELISA (EC50Luc[nM]/EC50test[nM]) [4]: 0.09
- koff [5]: 0.0266 s⁻¹
- kon [5]: 1.47e+07 M⁻¹ s⁻¹
- koff [6]: 0.0601 s⁻¹
- kon [6]: 3.47e+07 M⁻¹ s⁻¹
- koff [7]: 0.00282 s⁻¹
- kon [7]: 838000 M⁻¹ s⁻¹
- binding result (recombinant human PLGF): no binding
- koff [9]: 0.00123 s⁻¹
- kon [9]: 897000 M⁻¹ s⁻¹
- koff [10]: 0.00133 s⁻¹
- kon [10]: 901000 M⁻¹ s⁻¹
- koff [11]: 0.00282 s⁻¹
- kon [11]: 838000 M⁻¹ s⁻¹
B6: 509-maxII (scFv)
scFv: B5 scFv with C166S, C181I
notes: VH tied by name; also called Protein Nr
